Measurements taken from patent publication US20240325555A1 (LANOVA MEDICINES, published 2024).
Like-named read-outs stand apart in the source and are kept apart here. Each block holds one binder with its values, some of them ahead of it.

What was measured:
human LIV-1 [1] = target: T1, human LIV-1 (human, UniProt Q13433 29-755); experiment: FACS, HEK293/H_LIV-1 cells
T1 construct: whole, on cells; also called H-LIV1
T1 sequence (looked up): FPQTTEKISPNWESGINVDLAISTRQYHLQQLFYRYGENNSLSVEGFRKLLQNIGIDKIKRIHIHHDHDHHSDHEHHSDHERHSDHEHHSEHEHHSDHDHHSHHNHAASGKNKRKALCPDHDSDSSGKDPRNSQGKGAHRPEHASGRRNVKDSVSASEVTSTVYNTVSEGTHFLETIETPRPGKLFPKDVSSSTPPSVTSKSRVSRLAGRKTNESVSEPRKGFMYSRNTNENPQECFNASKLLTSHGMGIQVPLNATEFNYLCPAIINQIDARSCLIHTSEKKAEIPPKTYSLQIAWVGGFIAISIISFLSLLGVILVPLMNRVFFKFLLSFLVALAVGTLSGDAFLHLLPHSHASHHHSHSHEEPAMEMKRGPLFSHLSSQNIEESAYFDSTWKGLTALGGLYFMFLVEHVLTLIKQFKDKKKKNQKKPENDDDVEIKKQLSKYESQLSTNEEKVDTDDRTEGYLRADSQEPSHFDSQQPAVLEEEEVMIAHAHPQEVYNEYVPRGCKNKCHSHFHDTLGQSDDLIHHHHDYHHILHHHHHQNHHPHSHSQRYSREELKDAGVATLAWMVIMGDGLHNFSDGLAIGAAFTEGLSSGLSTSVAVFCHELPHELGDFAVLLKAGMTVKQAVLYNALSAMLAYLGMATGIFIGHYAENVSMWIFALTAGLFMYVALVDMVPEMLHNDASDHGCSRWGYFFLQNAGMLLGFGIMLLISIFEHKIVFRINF
Protocol: (§1) In this example, cell based binding of chimeric Abs on human and cyno LIV-1 over-expressing HEK 293 cells were assessed using flow cytometry.
(§2) Briefly, cells were incubated with chimeric Abs (from 100 nM, 5 folds dilution, 8 points). After incubation at 4° C. for 60 minutes, the cells were washed with 2% FBS/PBS buffer twice, then stained with fluorescent conjugated secondary antibody at 4° C. for 30 minutes. After that the cells were washed twice and resuspended in 80 μL of 2% FBS/PBS buffer. Fluorescent signal of binding was detected using Agilent. The EC50 was calculated using the GraphPad Software (LaJolla, CA).

cynomolgus LIV-1 [2] = target: T2, cynomolgus LIV-1 (cynomolgus, UniProt A0A2K5WH46 30-741); experiment: FACS, HEK293/Cyno_LIV-1 cells
Protocol: as §1, §2

cynomolgus LIV-1 [3] = target: T2, cynomolgus LIV-1; experiment: FACS, HEK293/Cyno_LIV-1 cells; remark: listed apart in the source
Target sequence in this assay (A0A2K5WH46 entry or part of it): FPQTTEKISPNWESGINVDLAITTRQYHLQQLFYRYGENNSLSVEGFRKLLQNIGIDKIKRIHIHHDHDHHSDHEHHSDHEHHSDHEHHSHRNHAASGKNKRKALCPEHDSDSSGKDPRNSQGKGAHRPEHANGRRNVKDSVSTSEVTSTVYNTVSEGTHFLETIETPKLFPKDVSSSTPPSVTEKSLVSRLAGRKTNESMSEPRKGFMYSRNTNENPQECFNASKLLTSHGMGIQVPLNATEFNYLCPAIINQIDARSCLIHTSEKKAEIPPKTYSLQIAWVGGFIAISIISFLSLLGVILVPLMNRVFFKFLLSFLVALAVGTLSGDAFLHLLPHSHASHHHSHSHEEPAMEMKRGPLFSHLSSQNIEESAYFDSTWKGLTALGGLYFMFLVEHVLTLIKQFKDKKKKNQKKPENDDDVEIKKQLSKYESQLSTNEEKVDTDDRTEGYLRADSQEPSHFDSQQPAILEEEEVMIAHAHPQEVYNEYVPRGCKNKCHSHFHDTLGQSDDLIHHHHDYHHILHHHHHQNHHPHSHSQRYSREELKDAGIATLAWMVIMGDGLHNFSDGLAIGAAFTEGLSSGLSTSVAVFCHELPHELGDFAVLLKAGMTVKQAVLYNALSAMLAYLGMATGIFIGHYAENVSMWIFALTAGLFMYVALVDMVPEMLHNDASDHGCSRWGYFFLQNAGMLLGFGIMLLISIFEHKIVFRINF

human LIV-1 [4] = target: T1, human LIV-1; experiment: FACS, HEK293/H_LIV-1 cells; remark: listed apart in the source
Protocol: In this example, cell based binding of humanized antibodies (hu Abs) on human LIV-1-expressing cells were assessed using flow cytometry.
Cell based binding of hu-Abs on human LIV-1 expressing cells were assessed using flow cytometry. Briefly, the HEK293/H_LIV-1 cells were incubated with hu-Abs (from 100 nM, 6 folds dilution, 8 points). After incubation at 4° C. for 60 minutes, the cells were washed with FACS buffer twice, then stained with fluorescent conjugated secondary antibody at 4° C. for 30 minutes. After that the cells were washed twice and analyzed by flow cytometry.

EC50 (human LIV-1 [1]): 610 pM
Top (MFI) (human LIV-1 [1]): 12300 MFI
EC50 (cynomolgus LIV-1 [2]): 500 pM
Top (MFI) (cynomolgus LIV-1 [2]): 7130 MFI
B1: 82C7C7 (antibody, V domains shown)
VH: EVQLQQSGAELVKPGASIKLSCTPSGFNIKDTFIHWVKQRPEQGLEWIGRIDPANGNTRYDPKFQGKATITADTSSNTAYLQLISLTSEDTAVYYCAGGSISTVVPDYWGQGTTLTVSS
VL: DVVVTQTPLSLPVSLGDQASISCRSSQSLVHNNGNTYLHWYLQKPGQSPKLLIYKVSNRFSGVPDRFSGSGSGTDFTLKISRVEAEDLGVYFCSQSTHVPYTFGGGTKLEIK
notes: Tested as chimeric antibody

EC50 (human LIV-1 [1]): 340 pM
Top (MFI) (human LIV-1 [1]): 66200 MFI
EC50 (cynomolgus LIV-1 [2]): 150 pM
Top (MFI) (cynomolgus LIV-1 [2]): 41300 MFI
B2: 92E4E10 (antibody, V domains shown)
VH: EVQLQQSGTVLARPGASVKISCKASGYRFTSYWMHWVKQRPGQGLEWIGAIYPGNSDTTYNQKFKGKAKLTAVTSASTAYMDLSSLTNEDSAVYYCTSLLLRSPFDYWGQGTTLTVSS
VL: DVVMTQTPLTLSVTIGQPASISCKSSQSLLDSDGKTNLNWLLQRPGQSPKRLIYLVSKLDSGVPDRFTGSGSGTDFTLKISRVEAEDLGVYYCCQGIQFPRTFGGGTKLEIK
notes: Tested as chimeric antibody

EC50 (human LIV-1 [1]): 9450 pM
Top (MFI) (human LIV-1 [1]): 17500 MFI
EC50 (cynomolgus LIV-1 [2]): 1850 pM
Top (MFI) (cynomolgus LIV-1 [2]): 7020 MFI
B3: 79F5G5 (antibody, V domains shown)
VH: EVQLQQSGAELVRSGASVKLSCTASGFNIKDYYMHWVKQRPEQGLEWIGWIDPENGDTEYAPKFQGKATLTADTSSNTAYLQLSSLTFEDTAVYYCPHGGGLRVFDYWGQGTSLTVSS
VL: DVLMTQIPLSLSVSLGDQASISCRSSQSIVHSNGNTYLEWYLQKPGQSPKLLIYKVSNRFSGVPDRFSGSGSGTDFTLKISRVEAEDLGVYYCFQGSHVPWTFGGGTKLEIK
notes: Tested as chimeric antibody

EC50 (cynomolgus LIV-1 [3]): 250 pM
Top (MFI) (cynomolgus LIV-1 [3]): 8070 MFI
EC50 (human LIV-1 [4]): 580 pM
Top (MFI) (human LIV-1 [4]): 15600 MFI
B6: 124H4D11.p2.z5 (antibody, V domains shown)
VH: QVQLVQSGAEVVKPGASVKVSCKASGFNIKDYYMHWVRQAPGQGLEWIGWIDPENDDTEYDPKFQGRVTMTADTSTSTVYMELSSLRSEDTAVYYCAARYYAFDYWGQGTMVTVSS
VL: DVLMTQSPLSLPVTLGQPASISCRSSQSIVHSNANTYLEWYLQRPGQSPKLLIYKVSNRFSGVPDRFSGSGSGTEFTLKISRVEAEDLGVYYCFQGSQVPPTFGGGTKLEIK

EC50 (human LIV-1 [1]): 1040 pM
Top (MFI) (human LIV-1 [1]): 12600 MFI
EC50 (cynomolgus LIV-1 [2]): 340 pM
Top (MFI) (cynomolgus LIV-1 [2]): 8240 MFI
B8: 99B3E8 (antibody, V domains shown)
VH: EVQLQQSGTVLARPGTSVKMSCKASGYTFINYWMHWVRQRPGQGLEWIGAFYPGNSDTSYNQNFKDKAKLTAVTSTSTAYMEFSSLTNEDSAVYYCTRDFTAVPFFDYWGQGTTLTVSS
VL: DVLMTQTPLSLPVSLGDQASISCRSSQSIVHSNGNTYLEWYLQKPGQSPKLLIYKVSNRFSGVPDRFSGSGSGTDFTLKISRVEAEDLGVYYCFQGSYVPLTFGVGTKLELK
notes: Tested as chimeric antibody

The remaining lines, values behind:

B4: 94C4B9 (antibody, V domains shown)
VH: EVQLQQSGTVLARPGASVKMSCKASGYTFINYWMHWVKQRPGQGLEWIGAFYPGNSDTSYNQKFKDKAKLTAVTSTSTAYMEFSSLTNEDSAVYYCTRDFTAVPYFDYWGQGTTLTVSS
VL: DILMTQTPLSLPVSLGDQASISCRSSQSIVHSNGNTYLEWYLQKPGQSPKLLIYKVSNRFSGVPDRFSGSGSGTDFTLKISRVEAEDLGVYYCFQGSYVPLTFGVGTKLELK
notes: Tested as chimeric antibody
EC50 (human LIV-1 [1]): 220 pM
Top (MFI) (human LIV-1 [1]): 11600 MFI
EC50 (cynomolgus LIV-1 [2]): 150 pM
Top (MFI) (cynomolgus LIV-1 [2]): 7860 MFI

B5: 124H4D11.p2.z14 (antibody, V domains shown)
VH: QVPLVQSGAEVVKPGASVKLSCKASGFNIKDYYMHWVKQAPGQGLEWIGWIDPENDDTEYDPKFQGRATMTADTSTSTAYLELSSLRSEDTAVYYCNARYYAFDYWGQGTTVTVSS
VL: DVLMTQSPLSLPVTLGQPASISCRSSQSIVHSNANTYLEWYLQRPGQSPRLLIYKVSNRFSGVPDRFSGSGSGTDFTLKISRVEAEDVGVYYCFQGSQVPPTFGQGTKLEIK
EC50 (cynomolgus LIV-1 [3]): 500 pM
Top (MFI) (cynomolgus LIV-1 [3]): 7670 MFI
Top (MFI) (human LIV-1 [4]): 16800 MFI

B7: 124H4D11.p2.z15 (antibody, V domains shown)
VH: QVPLVQSGAEVVKPGASVKLSCKASGFNIKDYYMHWVKQAPGQGLEWIGWIDPENDDTEYDPKFQGRATMTADTSTSTAYLELSSLRSEDTAVYYCNARYYAFDYWGQGTTVTVSS
VL: DVLMTQSPLSLPVTLGQPASISCRSSQSIVHSNANTYLEWYLQRPGQSPKLLIYKVSNRFSGVPDRFSGSGSGTEFTLKISRVEAEDLGVYYCFQGSQVPPTFGGGTKLEIK
EC50 (cynomolgus LIV-1 [3]): 5370 pM
Top (MFI) (cynomolgus LIV-1 [3]): 6910 MFI
Top (MFI) (human LIV-1 [4]): 16800 MFI

B9: 90H4F8 (antibody, V domains shown)
VH: QVQLQQSGPELVKPGASVRISCKASGYTFTSYHMHWVKQRPGQGLEWIGWIYPGNVKNQSNEKFKGKATLTADKSSSTAYMHLSSLTSEDSAVYFCARSDITRAFFAYWGQGTLVTVSA
VL: DVLMTQTPLSLPVSLGDQASISCRSSQSIVHSNGNTYLEWYLQKPGQSPKLLIYKVSNRFSGVPDRFSGSGSGTDFTLKISRVEAEDLGVYYCFQGSHGPYTFGGGTKLEIK
notes: Tested as chimeric antibody
EC50 (human LIV-1 [1]): 1080 pM
Top (MFI) (human LIV-1 [1]): 12200 MFI
EC50 (cynomolgus LIV-1 [2]): 430 pM
Top (MFI) (cynomolgus LIV-1 [2]): 6880 MFI

B10: 5D6B10.Z5 (antibody, V domains shown)
VH: QVQLVESGGGVVQPGRSLRLSCTVSGFSLTTYGIHWVRQSPGKGLEWLGVIWTGGTTDYNAAFISRLTISKDNSKSTLYFQMNSLRAEDTAVYYCARGPSSYWGQGTLVTVSS
VL: EIVMTQSPATLSVSPGERATVSCKASQNVDTNVVWYQQKPGQSPRALIHSASYRYSGVPDRFSGSGSGTDFTLTISSLQSEDFAVYFCQQYNNYPWTFGQGTKVEIK
EC50 (cynomolgus LIV-1 [3]): 1720 pM
Top (MFI) (cynomolgus LIV-1 [3]): 12400 MFI
EC50 (human LIV-1 [4]): 170 pM
Top (MFI) (human LIV-1 [4]): 43400 MFI

B11: 5D6B10.Z1 (antibody, V domains shown)
VH: QVQLVESGGGVVQPGRSLRLSCAVSGFSLTTYGIHWVRQAPGKGLEWLAVIWTGGTTDYNAAFISRFTISKDNSKSTLYLQMNSLRAEDTAVYYCARGPSSYWGQGTLVTVSS
VL: EIVMTQSPATLSVSPGERATLSCKASQNVDTNVVWYQQKPGQSPRALIYSASYRYSGVPARFSGSGSGTEFTLTISSLQSEDFAVYFCQQYNNYPWTFGQGTKVEIK
EC50 (cynomolgus LIV-1 [3]): 130 pM
Top (MFI) (cynomolgus LIV-1 [3]): 19600 MFI
EC50 (human LIV-1 [4]): 160 pM
Top (MFI) (human LIV-1 [4]): 49800 MFI

B12: 5D6B10.Z4 (antibody, V domains shown)
VH: QVQLVESGGGVVQPGRSLRLSCTVSGFSLTTYGIHWVRQSPGKGLEWLGVIWTGGTTDYNAAFISRLTISKDNSKSTLYFQMNSLRAEDTAVYYCARGPSSYWGQGTLVTVSS
VL: EIVMTQSPATLSVSPGERATLSCKASQNVDTNVVWYQQKPGQSPRALIYSASYRYSGVPARFSGSGSGTEFTLTISSLQSEDFAVYFCQQYNNYPWTFGQGTKVEIK
EC50 (cynomolgus LIV-1 [3]): 200 pM
Top (MFI) (cynomolgus LIV-1 [3]): 19800 MFI
EC50 (human LIV-1 [4]): 280 pM
Top (MFI) (human LIV-1 [4]): 53000 MFI

B13: 5D6B10.Z2 (antibody, V domains shown)
VH: QVQLVESGGGVVQPGRSLRLSCAVSGFSLTTYGIHWVRQAPGKGLEWLAVIWTGGTTDYNAAFISRFTISKDNSKSTLYLQMNSLRAEDTAVYYCARGPSSYWGQGTLVTVSS
VL: EIVMTQSPATLSVSPGERATVSCKASQNVDTNVVWYQQKPGQSPRALIHSASYRYSGVPDRFSGSGSGTDFTLTISSLQSEDFAVYFCQQYNNYPWTFGQGTKVEIK
EC50 (cynomolgus LIV-1 [3]): 4560 pM
Top (MFI) (cynomolgus LIV-1 [3]): 14900 MFI
EC50 (human LIV-1 [4]): 180 pM
Top (MFI) (human LIV-1 [4]): 46700 MFI

B14: 5D6B10.Z3 (antibody, V domains shown)
VH: QVQLVESGGGVVQPGRSLRLSCAVSGFSLTTYGIHWVRQAPGKGLEWLAVIWTGGTTDYNAAFISRFTISKDNSKSTLYLQMNSLRAEDTAVYYCARGPSSYWGQGTLVTVSS
VL: DIVMTQSPATLSVSPGERVTVSCKASQNVDTNVVWYQQKPGQSPRALIHSASYRYSGVPDRFSGSGSGTDFTLTISSVQSEDFAVYFCQQYNNYPWTFGGGTKLEIK
EC50 (cynomolgus LIV-1 [3]): 230 pM
Top (MFI) (cynomolgus LIV-1 [3]): 17200 MFI
EC50 (human LIV-1 [4]): 330 pM
Top (MFI) (human LIV-1 [4]): 51200 MFI
